Numbered stars: 1 amine (or outer) side, 2 acyl side, 3 side chain; on linkers, the order of the positions; unused ones are H or OH. Square brackets hold non-standard residues; d marks the D form. * marks the point of attachment. X2 = 4‑amino‑1‑((3-fluoro-4-methylbenzyl)glycyl)piperidine‑4‑carboxylic acid, Cc1ccc(CN(CC(=O)N2CCC(N[*:1])(C(=O)[*:2])CC2)[*:3])cc1F; X10 = 3‑(2-(2-(3-(4-iodophenyl)propanamido)ethoxy)ethoxy)propanoyl, O=C(CCc1ccc(I)cc1)NCCOCCOCCC(=O)*; X6 = 3‑(2-(2-(3-(p-tolyl)propanamido)ethoxy)ethoxy)propanoyl, Cc1ccc(CCC(=O)NCCOCCOCCC(=O)*)cc1; DOTA = O=C(O)CN1CCN(CC(=O)O)CCN(CC(=O)*)CCN(CC(=O)O)CC1; Api(1-amidino) = N=C(N)N1CCC(N)(C(=O)O)CC1; d(γGlu) = O=C(O)[C@@H](CCC(=O)[*:2])N[*:1]; Phe(4-CN) = N#Cc1ccc(C[C@H](N)C(=O)O)cc1; d2Nal = N[C@H](Cc1ccc2ccccc2c1)C(=O)O; Palmitoyl = CCCCCCCCCCCCCCCC(=O)*; 4Pal = N[C@@H](Cc1ccncc1)C(=O)O; d4Pal = N[C@H](Cc1ccncc1)C(=O)O; Cha = N[C@@H](CC1CCCCC1)C(=O)O; 4Amb = NCc1ccc(C(=O)O)cc1; Ahx = NCCCCCC(=O)O; azaGly = NNC(=O)O
B1: Compound 325 (peptide)
peptide: X10-[dY]K(DOTA)NTF[azaGly]L[Api(1-amidino)][Phe(4-CN)]-NH2
SMILES: CC(C)C[C@H](NC(=O)NNC(=O)[C@H](Cc1ccccc1)NC(=O)[C@@H](NC(=O)[C@H](CC(N)=O)NC(=O)[C@H](CCCCNC(=O)CN1CCN(CC(=O)O)CCN(CC(=O)O)CCN(CC(=O)O)CC1)NC(=O)[C@@H](Cc1ccc(O)cc1)NC(=O)CCOCCOCCNC(=O)CCc1ccc(I)cc1)[C@@H](C)O)C(=O)NC1(C(=O)N[C@@H](Cc2ccc(C#N)cc2)C(N)=O)CCN(C(=N)N)CC1
B2: Compound 270 (peptide)
peptide: {DOTA-Ahx-4Amb}-[dY][dW]NTF[azaGly]L[Api(1-amidino)]W-NH2
SMILES: CC(C)C[C@H](NC(=O)NNC(=O)[C@H](Cc1ccccc1)NC(=O)[C@@H](NC(=O)[C@H](CC(N)=O)NC(=O)[C@@H](Cc1c[nH]c2ccccc12)NC(=O)[C@@H](Cc1ccc(O)cc1)NC(=O)c1ccc(CNC(=O)CCCCCNC(=O)CN2CCN(CC(=O)O)CCN(CC(=O)O)CCN(CC(=O)O)CC2)cc1)[C@@H](C)O)C(=O)NC1(C(=O)N[C@@H](Cc2c[nH]c3ccccc23)C(N)=O)CCN(C(=N)N)CC1
B3: Compound 291 (peptide)
peptide: {DOTA-Ahx}-[dY]NTF[azaGly]L[X2][4Pal]-NH2
SMILES: Cc1ccc(CNCC(=O)N2CCC(NC(=O)[C@H](CC(C)C)NC(=O)NNC(=O)[C@H](Cc3ccccc3)NC(=O)[C@@H](NC(=O)[C@H](CC(N)=O)NC(=O)[C@@H](Cc3ccc(O)cc3)NC(=O)CCCCCNC(=O)CN3CCN(CC(=O)O)CCN(CC(=O)O)CCN(CC(=O)O)CC3)[C@@H](C)O)(C(=O)N[C@@H](Cc3ccncc3)C(N)=O)CC2)cc1F
B4: Compound 323 (peptide)
peptide: X10-[dY]K(DOTA)NTF[azaGly]L[Api(1-amidino)]F-NH2
SMILES: CC(C)C[C@H](NC(=O)NNC(=O)[C@H](Cc1ccccc1)NC(=O)[C@@H](NC(=O)[C@H](CC(N)=O)NC(=O)[C@H](CCCCNC(=O)CN1CCN(CC(=O)O)CCN(CC(=O)O)CCN(CC(=O)O)CC1)NC(=O)[C@@H](Cc1ccc(O)cc1)NC(=O)CCOCCOCCNC(=O)CCc1ccc(I)cc1)[C@@H](C)O)C(=O)NC1(C(=O)N[C@@H](Cc2ccccc2)C(N)=O)CCN(C(=N)N)CC1
B5: Compound 295 (peptide)
peptide: {DOTA-Ahx}-[d4Pal]NTF[azaGly]L[X2][4Pal]-NH2
SMILES: Cc1ccc(CNCC(=O)N2CCC(NC(=O)[C@H](CC(C)C)NC(=O)NNC(=O)[C@H](Cc3ccccc3)NC(=O)[C@@H](NC(=O)[C@H](CC(N)=O)NC(=O)[C@@H](Cc3ccncc3)NC(=O)CCCCCNC(=O)CN3CCN(CC(=O)O)CCN(CC(=O)O)CCN(CC(=O)O)CC3)[C@@H](C)O)(C(=O)N[C@@H](Cc3ccncc3)C(N)=O)CC2)cc1F
B6: Compound 292 (peptide)
peptide: {DOTA-Ahx}-[d2Nal]NTF[azaGly]L[X2][4Pal]-NH2
SMILES: Cc1ccc(CNCC(=O)N2CCC(NC(=O)[C@H](CC(C)C)NC(=O)NNC(=O)[C@H](Cc3ccccc3)NC(=O)[C@@H](NC(=O)[C@H](CC(N)=O)NC(=O)[C@@H](Cc3ccc4ccccc4c3)NC(=O)CCCCCNC(=O)CN3CCN(CC(=O)O)CCN(CC(=O)O)CCN(CC(=O)O)CC3)[C@@H](C)O)(C(=O)N[C@@H](Cc3ccncc3)C(N)=O)CC2)cc1F
B7: Compound 324 (peptide)
peptide: X10-[dY]K(DOTA)NTF[azaGly]L[Api(1-amidino)]Y-NH2
SMILES: CC(C)C[C@H](NC(=O)NNC(=O)[C@H](Cc1ccccc1)NC(=O)[C@@H](NC(=O)[C@H](CC(N)=O)NC(=O)[C@H](CCCCNC(=O)CN1CCN(CC(=O)O)CCN(CC(=O)O)CCN(CC(=O)O)CC1)NC(=O)[C@@H](Cc1ccc(O)cc1)NC(=O)CCOCCOCCNC(=O)CCc1ccc(I)cc1)[C@@H](C)O)C(=O)NC1(C(=O)N[C@@H](Cc2ccc(O)cc2)C(N)=O)CCN(C(=N)N)CC1
B8: Compound 328 (peptide)
peptide: Palmitoyl-[dY]K(DOTA)NTF[azaGly]L[Api(1-amidino)]W-NH2
SMILES: CCCCCCCCCCCCCCCC(=O)N[C@H](Cc1ccc(O)cc1)C(=O)N[C@@H](CCCCNC(=O)CN1CCN(CC(=O)O)CCN(CC(=O)O)CCN(CC(=O)O)CC1)C(=O)N[C@@H](CC(N)=O)C(=O)N[C@H](C(=O)N[C@@H](Cc1ccccc1)C(=O)NNC(=O)N[C@@H](CC(C)C)C(=O)NC1(C(=O)N[C@@H](Cc2c[nH]c3ccccc23)C(N)=O)CCN(C(=N)N)CC1)[C@@H](C)O
B9: Compound 1 (peptide)
peptide: {DOTA-Ahx}-[dY][dW]NTF[azaGly]L[X2]W-NH2
SMILES: Cc1ccc(CNCC(=O)N2CCC(NC(=O)[C@H](CC(C)C)NC(=O)NNC(=O)[C@H](Cc3ccccc3)NC(=O)[C@@H](NC(=O)[C@H](CC(N)=O)NC(=O)[C@@H](Cc3c[nH]c4ccccc34)NC(=O)[C@@H](Cc3ccc(O)cc3)NC(=O)CCCCCNC(=O)CN3CCN(CC(=O)O)CCN(CC(=O)O)CCN(CC(=O)O)CC3)[C@@H](C)O)(C(=O)N[C@@H](Cc3c[nH]c4ccccc34)C(N)=O)CC2)cc1F
B10: Compound 272 (peptide)
peptide: {DOTA-4Amb}-NTF[azaGly]L[Api(1-amidino)][4Pal]-NH2
SMILES: CC(C)C[C@H](NC(=O)NNC(=O)[C@H](Cc1ccccc1)NC(=O)[C@@H](NC(=O)[C@H](CC(N)=O)NC(=O)c1ccc(CNC(=O)CN2CCN(CC(=O)O)CCN(CC(=O)O)CCN(CC(=O)O)CC2)cc1)[C@@H](C)O)C(=O)NC1(C(=O)N[C@@H](Cc2ccncc2)C(N)=O)CCN(C(=N)N)CC1
B11: Compound 290 (peptide)
peptide: {DOTA-Ahx}-[dW]NTF[azaGly]L[X2][4Pal]-NH2
SMILES: Cc1ccc(CNCC(=O)N2CCC(NC(=O)[C@H](CC(C)C)NC(=O)NNC(=O)[C@H](Cc3ccccc3)NC(=O)[C@@H](NC(=O)[C@H](CC(N)=O)NC(=O)[C@@H](Cc3c[nH]c4ccccc34)NC(=O)CCCCCNC(=O)CN3CCN(CC(=O)O)CCN(CC(=O)O)CCN(CC(=O)O)CC3)[C@@H](C)O)(C(=O)N[C@@H](Cc3ccncc3)C(N)=O)CC2)cc1F
B12: Compound 305 (peptide)
peptide: {DOTA}-GY[Ahx]F[azaGly]L[X2]W-NH2
SMILES: Cc1ccc(CNCC(=O)N2CCC(NC(=O)[C@H](CC(C)C)NC(=O)NNC(=O)[C@H](Cc3ccccc3)NC(=O)CCCCCNC(=O)[C@H](Cc3ccc(O)cc3)NC(=O)CNC(=O)CN3CCN(CC(=O)O)CCN(CC(=O)O)CCN(CC(=O)O)CC3)(C(=O)N[C@@H](Cc3c[nH]c4ccccc34)C(N)=O)CC2)cc1F
B13: Compound 327 (peptide)
peptide: X10-[dY]K(DOTA)NT[Cha][azaGly]L[Api(1-amidino)]W-NH2
SMILES: CC(C)C[C@H](NC(=O)NNC(=O)[C@H](CC1CCCCC1)NC(=O)[C@@H](NC(=O)[C@H](CC(N)=O)NC(=O)[C@H](CCCCNC(=O)CN1CCN(CC(=O)O)CCN(CC(=O)O)CCN(CC(=O)O)CC1)NC(=O)[C@@H](Cc1ccc(O)cc1)NC(=O)CCOCCOCCNC(=O)CCc1ccc(I)cc1)[C@@H](C)O)C(=O)NC1(C(=O)N[C@@H](Cc2c[nH]c3ccccc23)C(N)=O)CCN(C(=N)N)CC1
B14: Compound 322 (peptide)
peptide: X6-[dY]K(DOTA)NTF[azaGly]L[Api(1-amidino)]F-NH2
SMILES: Cc1ccc(CCC(=O)NCCOCCOCCC(=O)N[C@H](Cc2ccc(O)cc2)C(=O)N[C@@H](CCCCNC(=O)CN2CCN(CC(=O)O)CCN(CC(=O)O)CCN(CC(=O)O)CC2)C(=O)N[C@@H](CC(N)=O)C(=O)N[C@H](C(=O)N[C@@H](Cc2ccccc2)C(=O)NNC(=O)N[C@@H](CC(C)C)C(=O)NC2(C(=O)N[C@@H](Cc3ccccc3)C(N)=O)CCN(C(=N)N)CC2)[C@@H](C)O)cc1
B15: Compound 302 (peptide)
peptide: {DOTA}-[d2Nal]NTF[azaGly]L[Api(1-amidino)]F-NH2
SMILES: CC(C)C[C@H](NC(=O)NNC(=O)[C@H](Cc1ccccc1)NC(=O)[C@@H](NC(=O)[C@H](CC(N)=O)NC(=O)[C@@H](Cc1ccc2ccccc2c1)NC(=O)CN1CCN(CC(=O)O)CCN(CC(=O)O)CCN(CC(=O)O)CC1)[C@@H](C)O)C(=O)NC1(C(=O)N[C@@H](Cc2ccccc2)C(N)=O)CCN(C(=N)N)CC1
B16: Compound 326 (peptide)
peptide: X6-[dY]K(DOTA)NT[Cha][azaGly]L[Api(1-amidino)]W-NH2
SMILES: Cc1ccc(CCC(=O)NCCOCCOCCC(=O)N[C@H](Cc2ccc(O)cc2)C(=O)N[C@@H](CCCCNC(=O)CN2CCN(CC(=O)O)CCN(CC(=O)O)CCN(CC(=O)O)CC2)C(=O)N[C@@H](CC(N)=O)C(=O)N[C@H](C(=O)N[C@@H](CC2CCCCC2)C(=O)NNC(=O)N[C@@H](CC(C)C)C(=O)NC2(C(=O)N[C@@H](Cc3c[nH]c4ccccc34)C(N)=O)CCN(C(=N)N)CC2)[C@@H](C)O)cc1

What follows are binders tested against human kisspeptin receptor (KISS1R) (human), Q969F8 (assay: radioligand competition, hKISS1R membranes; legend: A is <10 nM).
human kisspeptin receptor (KISS1R) (human), Q969F8, sequence (Q969F8 whole entry): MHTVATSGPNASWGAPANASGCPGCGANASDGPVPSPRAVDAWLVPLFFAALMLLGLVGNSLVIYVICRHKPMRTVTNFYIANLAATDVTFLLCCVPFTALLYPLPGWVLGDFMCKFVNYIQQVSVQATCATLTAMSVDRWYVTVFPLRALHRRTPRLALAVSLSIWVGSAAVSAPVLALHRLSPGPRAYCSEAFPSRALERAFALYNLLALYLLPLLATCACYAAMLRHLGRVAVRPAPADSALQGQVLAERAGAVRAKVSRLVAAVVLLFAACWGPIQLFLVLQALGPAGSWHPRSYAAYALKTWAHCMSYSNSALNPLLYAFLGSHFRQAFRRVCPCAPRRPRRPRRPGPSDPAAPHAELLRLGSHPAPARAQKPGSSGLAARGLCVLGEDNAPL

Ki, < 10 nM:
B1
B2
B3
B4
B5
{3‑(4-iodophenyl)propanoyl}-[dY]K(DOTA)NTF[azaGly]L[Api(1-amidino)]W-NH2 [Compound 321]
B6
B7
{DOTA-Ahx}-[dY][dW]NTF[azaGly]L[Apc(OMe)][4Pal]-NH2 [Compound 293]
B8
{3‑(4-iodophenyl)propanoyl}-[d(γGlu)][dY]K(DOTA)NTF[azaGly]L[Api(1-amidino)]W-NH2 [Compound 320]
B9
B10
B11
B12
B13
B14
B15
B16

Reference: patent publication US20250312499A1, “KISSPEPTIN RECEPTOR (KISS1R) TARGETED THERAPEUTICS AND USES THEREOF” (priority 2024, published 2025)
